Here are results for two molecules from US20180030090A1 (AGENCY FOR SCIENCE TECHNOLOGY AND RESEARCH, published 2018).

Bridges are numbered along the chain shown (N, C = ends). [ ]: non-standard residue; d: D form. R8 = C=CCCCCCC[C@@](C)(N)C(=O)O; S5 = C=CCCC[C@](C)(N)C(=O)O; Ahx = NCCCCCC(=O)O

One assay has as its target T1, Mdm2 (1-125) (UniProt Q00987 1-125).
T1 construct: range 1-125; also called N-terminal domain of Mdm2; Mdm2 (1 to 125)
Nature of the assay: competitive fluorescence anisotropy, displacement of FAM-labelled 12-1 peptide from Mdm2 (1-125); apparent Kd. The method, then:
All titrations were carried out in triplicate.
(In general: In fluorescence polarisation assays a small probe gives low polarisation when free and higher when bound to something large.)

In the next assay the target is Mdm2 in murine T22 cells (murine, UniProt P23804 1-489, limits assumed). Put plainly: cell-based or functional assay.
Mdm2 in murine T22 cells, sequence (P23804 whole entry): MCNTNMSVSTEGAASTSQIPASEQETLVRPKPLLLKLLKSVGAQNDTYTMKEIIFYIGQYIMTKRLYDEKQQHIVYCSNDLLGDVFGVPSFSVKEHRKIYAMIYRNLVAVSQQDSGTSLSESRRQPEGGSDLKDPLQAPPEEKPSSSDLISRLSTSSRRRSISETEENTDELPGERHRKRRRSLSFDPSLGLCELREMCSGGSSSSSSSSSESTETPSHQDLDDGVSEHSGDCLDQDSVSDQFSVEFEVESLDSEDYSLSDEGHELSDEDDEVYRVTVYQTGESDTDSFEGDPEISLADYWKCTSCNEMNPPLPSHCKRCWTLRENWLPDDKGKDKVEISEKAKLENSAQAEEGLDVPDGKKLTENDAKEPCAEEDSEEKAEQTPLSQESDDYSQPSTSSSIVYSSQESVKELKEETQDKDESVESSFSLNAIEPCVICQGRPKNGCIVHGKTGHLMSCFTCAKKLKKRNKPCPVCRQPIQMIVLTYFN

T1 sequence (Q00987 1-125 limits assumed): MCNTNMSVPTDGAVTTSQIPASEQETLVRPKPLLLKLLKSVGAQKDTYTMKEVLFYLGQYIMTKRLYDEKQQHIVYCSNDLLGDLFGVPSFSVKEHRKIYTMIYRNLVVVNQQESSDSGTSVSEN

Turning to Ac-KK[Ahx]TSF[R8]EYWALL[S5]ENF-NH2 (staple 7-14) [YS-07 (capped), Ac-KK-Ahx-TSFX8EYWALLS5ENF-NH2], the Kd with Mdm2 (1-125) amounted to 0.0244 µM. Further, in the assay with Mdm2 in murine T22 cells, the “T22 IC50 (0% µM), T22 p53 reporter assay without serum” value is around 0.78 µM and the “T22 Ic50 (10% µM), T22 p53 reporter assay with 10% fetal calf serum” value stood at 9.95 µM.
With Ac-TSF[R8]EYWALL[S5]-NH2 (staple 4-11) [sMTide-02 (capped), Ac-TSFX8EYWALLS5-NH2], in the assay with Mdm2 in murine T22 cells, the “T22 IC50 (0% µM), T22 p53 reporter assay without serum” value turned out to be 2.75 µM and the “T22 Ic50 (10% µM), T22 p53 reporter assay with 10% fetal calf serum” value came to 17.9 µM.
